Data from paper PMC3998512 (DNA repair, 2013).

B1: His tagged human Δ16mtSSB (mtSSB lacking 16 N-terminal amino acids) (natural protein, UniProt Q04837 17-148, looked up)
chain: ESETTTSLVLERSLNRVHLLGRVGQDPVLRQVEGKNPVTIFSLATNEMWRSGDSEVYQLGDVSQKTTWHRISVFRPGLRDVAYQYVKKGSRIYLEGKIDYGEYMDKNNVRRQATTIIADNIIFLSDQTKEKE
B2: human recombinant Δ80AAG (AAG lacking the first 80 amino acids) (domain or fragment, UniProt P29372 81-298, looked up)
chain: GHLTRLGLEFFDQPAVPLARAFLGQVLVRRLPNGTELRGRIVETEAYLGPEDEAAHSRGGRQTPRNRGMFMKPGTLYVYIIYGMYFCMNISSQGDGACVLLRALEPLEGLETMRQLRSTLRKGTASRVLKDRELCSGPSKLCQALAINKSFDQRDLAQDEAVWLERGPLEPSEPAVVAAARVGVGHAGEWARKPLRFYVRGSPWVSVVDRVAEQDTQA

Columns and labels:
GST tagged human Cdk1 = GST tagged human Cdk1 (human, UniProt P06493 1-297); assay: far-Western, overlay or dot blot
His tagged human PCNA = His tagged human PCNA (human, UniProt P12004 1-261); assay: far-Western, overlay or dot blot
Sequence of His tagged human PCNA (P12004 whole entry): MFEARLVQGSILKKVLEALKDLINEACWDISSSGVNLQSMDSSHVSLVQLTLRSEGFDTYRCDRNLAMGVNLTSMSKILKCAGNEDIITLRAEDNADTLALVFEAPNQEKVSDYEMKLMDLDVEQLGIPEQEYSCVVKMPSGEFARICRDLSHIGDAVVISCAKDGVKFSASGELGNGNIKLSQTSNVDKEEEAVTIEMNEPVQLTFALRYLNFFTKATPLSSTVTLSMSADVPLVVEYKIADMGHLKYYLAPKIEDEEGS

Sequence of GST tagged human Cdk1 (P06493 whole entry): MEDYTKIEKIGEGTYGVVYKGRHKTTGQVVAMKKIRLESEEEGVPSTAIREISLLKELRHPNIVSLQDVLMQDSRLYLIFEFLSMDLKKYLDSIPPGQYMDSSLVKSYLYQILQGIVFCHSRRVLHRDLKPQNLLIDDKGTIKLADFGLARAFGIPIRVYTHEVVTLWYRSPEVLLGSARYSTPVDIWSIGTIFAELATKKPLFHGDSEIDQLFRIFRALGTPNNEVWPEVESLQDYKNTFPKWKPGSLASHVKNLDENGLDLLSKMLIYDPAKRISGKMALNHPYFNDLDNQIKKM

Row | Binder | binding result (GST tagged human Cdk1) | binding result (His tagged human PCNA)
1 | B1 | binds | 
2 | B2 |  | binds
